# Source: publication PMC5053906 (Neuron, 2016)
# B1: C-terminally GFP-tagged mGluR2 (receptor, rat, UniProt P31421 19-872, looked up)
# chain: EGPAKKVLTLEGDLVLGGLFPVHQKGGPAEECGPVNEHRGIQRLEAMLFALDRINRDPHLLPGVRLGAHILDSCSKDTHALEQALDFVRASLSRGADGSRHICPDGSYATHSDAPTAVTGVIGGSYSDVSIQVANLLRLFQIPQISYASTSAKLSDKSRYDYFARTVPPDFFQAKAMAEILRFFNWTYVSTVASEGDYGETGIEAFELEARARNICVATSEKVGRAMSRAAFEGVVRALLQKPSARVAVLFTRSEDARELLAATQRLNASFTWVASDGWGALESVVAGSERAAEGAITIELASYPISDFASYFQSLDPWNNSRNPWFREFWEERFHCSFRQRDCAAHSLRAVPFEQESKIMFVVNAVYAMAHALHNMHRALCPNTTHLCDAMRPVNGRRLYKDFVLNVKFDAPFRPADTDDEVRFDRFGDGIGRYNIFTYLRAGSGRYRYQKVGYWAEGLTLDTSFIPWASPSAGPLPASRCSEPCLQNEVKSVQPGEVCCWLCIPCQPYEYRLDEFTCADCGLGYWPNASLTGCFELPQEYIRWGDAWAVGPVTIACLGALATLFVLGVFVRHNATPVVKASGRELCYILLGGVFLCYCMTFVFIAKPSTAVCTLRRLGLGTAFSVCYSALLTKTNRIARIFGGAREGAQRPRFISPASQVAICLALISGQLLIVAAWLVVEAPGTGKETAPERREVVTLRCNHRDASMLGSLAYNVLLIALCTLYAFKTRKCPENFNEAKFIGFTMYTTCIIWLAFLPIFYVTSSDYRVQTTTMCVSVSLSGSVVLGCLFAPKLHIILFQPQKNVVSHRAPTSRFGSAAPRASANLGQGSGSQFVPTVCNGREVVDSTTSSL
# Target: the molecule itself
# Test: single molecule subunit counting
protein,measurement,value
B1,stoichiometry N,2
